Measurements published in patent US20190134153A1, “IMMUNOMODULATORY EFFECT OF INHALED KINASE INHIBITOR PEPTIDES IN LUNG” (MOERAE MATRIX, INC., priority 2017, published 2019).

Assays:
Assay in all cases: Kinase Profiling Assay
Type in all cases: biochemical
Details in all cases: 100 μM
[1] = biological target: T1, PKG1α(h) (Homo sapiens, UniProt Q13976)
T1 sequence (Q13976 1-671): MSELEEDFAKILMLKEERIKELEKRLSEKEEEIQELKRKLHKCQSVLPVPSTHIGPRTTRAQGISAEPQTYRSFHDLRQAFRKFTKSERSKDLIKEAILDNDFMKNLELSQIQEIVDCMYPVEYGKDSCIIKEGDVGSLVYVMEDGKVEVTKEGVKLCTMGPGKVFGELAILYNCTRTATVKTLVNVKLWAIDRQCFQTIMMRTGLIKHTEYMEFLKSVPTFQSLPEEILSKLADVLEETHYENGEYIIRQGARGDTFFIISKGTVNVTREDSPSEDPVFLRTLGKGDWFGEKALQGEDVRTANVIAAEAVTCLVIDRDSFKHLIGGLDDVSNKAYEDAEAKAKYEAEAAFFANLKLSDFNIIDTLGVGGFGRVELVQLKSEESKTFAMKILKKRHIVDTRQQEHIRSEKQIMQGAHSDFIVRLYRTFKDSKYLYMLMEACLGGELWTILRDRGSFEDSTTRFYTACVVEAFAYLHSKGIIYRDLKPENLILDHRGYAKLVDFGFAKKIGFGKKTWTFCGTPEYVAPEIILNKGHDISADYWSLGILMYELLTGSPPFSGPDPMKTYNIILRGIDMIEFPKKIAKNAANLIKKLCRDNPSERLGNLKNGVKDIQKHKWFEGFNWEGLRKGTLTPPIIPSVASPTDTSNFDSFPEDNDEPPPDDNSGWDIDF

[2] = biological target: T2, IRAK4(h) (Homo sapiens, UniProt Q9NWZ3)
T2 sequence (Q9NWZ3 1-460): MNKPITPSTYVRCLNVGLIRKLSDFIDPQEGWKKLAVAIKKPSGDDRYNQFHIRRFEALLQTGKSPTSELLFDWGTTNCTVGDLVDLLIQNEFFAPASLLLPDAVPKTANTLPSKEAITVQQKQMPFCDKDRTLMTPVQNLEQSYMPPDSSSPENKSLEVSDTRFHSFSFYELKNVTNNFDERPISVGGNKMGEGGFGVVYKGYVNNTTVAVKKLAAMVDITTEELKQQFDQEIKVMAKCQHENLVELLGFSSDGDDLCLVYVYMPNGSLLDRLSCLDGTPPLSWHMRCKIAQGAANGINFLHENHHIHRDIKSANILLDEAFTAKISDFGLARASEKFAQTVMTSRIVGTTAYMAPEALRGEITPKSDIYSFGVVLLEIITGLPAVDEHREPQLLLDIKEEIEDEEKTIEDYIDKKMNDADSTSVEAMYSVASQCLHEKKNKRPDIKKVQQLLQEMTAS

[3] = biological target: MSSK1(h) (Homo sapiens, UniProt Q9UPE1)
Chain of MSSK1(h) (Q9UPE1 whole entry): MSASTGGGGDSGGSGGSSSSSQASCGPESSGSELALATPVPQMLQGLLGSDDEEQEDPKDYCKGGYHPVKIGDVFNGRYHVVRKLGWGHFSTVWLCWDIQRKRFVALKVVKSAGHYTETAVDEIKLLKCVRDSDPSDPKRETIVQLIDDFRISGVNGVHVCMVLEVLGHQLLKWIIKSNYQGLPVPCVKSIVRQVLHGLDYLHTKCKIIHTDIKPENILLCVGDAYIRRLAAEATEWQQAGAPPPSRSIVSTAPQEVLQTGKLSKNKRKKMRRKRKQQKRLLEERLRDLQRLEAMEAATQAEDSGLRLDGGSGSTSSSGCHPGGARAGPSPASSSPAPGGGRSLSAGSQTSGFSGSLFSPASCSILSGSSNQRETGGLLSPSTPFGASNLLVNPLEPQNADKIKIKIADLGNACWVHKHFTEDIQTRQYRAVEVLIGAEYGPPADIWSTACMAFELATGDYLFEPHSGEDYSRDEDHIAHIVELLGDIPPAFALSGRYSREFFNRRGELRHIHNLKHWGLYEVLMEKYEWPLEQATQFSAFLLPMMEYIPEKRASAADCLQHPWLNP

[4] = biological target: Lyn(h) (Homo sapiens, UniProt P07948)
Chain of Lyn(h) (P07948 whole entry): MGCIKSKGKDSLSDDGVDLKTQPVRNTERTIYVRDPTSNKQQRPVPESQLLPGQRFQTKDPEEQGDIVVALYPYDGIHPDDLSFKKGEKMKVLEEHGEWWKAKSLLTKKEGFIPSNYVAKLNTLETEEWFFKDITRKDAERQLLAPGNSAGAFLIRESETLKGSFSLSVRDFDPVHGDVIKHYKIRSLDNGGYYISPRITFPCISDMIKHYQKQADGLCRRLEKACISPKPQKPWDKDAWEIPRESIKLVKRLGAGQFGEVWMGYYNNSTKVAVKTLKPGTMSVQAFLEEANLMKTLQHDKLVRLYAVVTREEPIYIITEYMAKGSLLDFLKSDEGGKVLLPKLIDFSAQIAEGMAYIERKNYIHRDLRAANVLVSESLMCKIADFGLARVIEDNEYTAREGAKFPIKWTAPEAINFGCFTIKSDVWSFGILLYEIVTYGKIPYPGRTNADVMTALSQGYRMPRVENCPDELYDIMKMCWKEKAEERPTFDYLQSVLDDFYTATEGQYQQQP

[5] = biological target: Fes(h) (Homo sapiens, UniProt P07332)
Chain of Fes(h) (P07332 whole entry): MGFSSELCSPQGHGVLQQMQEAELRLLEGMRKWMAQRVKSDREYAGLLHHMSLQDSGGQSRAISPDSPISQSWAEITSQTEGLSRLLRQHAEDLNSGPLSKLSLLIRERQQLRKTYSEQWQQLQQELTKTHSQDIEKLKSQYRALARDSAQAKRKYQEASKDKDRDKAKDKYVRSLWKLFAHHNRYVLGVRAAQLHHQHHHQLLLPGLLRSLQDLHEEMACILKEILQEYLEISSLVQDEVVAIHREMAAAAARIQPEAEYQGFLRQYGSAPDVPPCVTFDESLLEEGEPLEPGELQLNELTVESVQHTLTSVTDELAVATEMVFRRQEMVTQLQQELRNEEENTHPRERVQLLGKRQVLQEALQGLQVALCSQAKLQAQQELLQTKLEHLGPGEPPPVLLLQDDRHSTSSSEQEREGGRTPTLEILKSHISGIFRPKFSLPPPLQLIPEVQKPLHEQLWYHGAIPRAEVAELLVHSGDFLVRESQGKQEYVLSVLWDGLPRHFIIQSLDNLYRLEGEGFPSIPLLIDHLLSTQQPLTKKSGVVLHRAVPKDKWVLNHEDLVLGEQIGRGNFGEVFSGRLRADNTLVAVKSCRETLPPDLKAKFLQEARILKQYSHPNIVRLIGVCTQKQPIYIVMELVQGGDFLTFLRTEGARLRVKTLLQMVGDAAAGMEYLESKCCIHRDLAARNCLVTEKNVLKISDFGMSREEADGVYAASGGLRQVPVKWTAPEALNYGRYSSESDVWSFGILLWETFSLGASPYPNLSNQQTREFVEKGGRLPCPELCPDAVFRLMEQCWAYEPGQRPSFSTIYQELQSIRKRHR

[6] = biological target: Abl(T315I)(h) (Homo sapiens, UniProt P00519, T315I)
[7] = biological target: HIPK1(h) (Homo sapiens, UniProt Q86Z02)
[8] = biological target: MAPKAP-K2(h) (Homo sapiens, UniProt P49137)
Chain of MAPKAP-K2(h) (P49137 whole entry): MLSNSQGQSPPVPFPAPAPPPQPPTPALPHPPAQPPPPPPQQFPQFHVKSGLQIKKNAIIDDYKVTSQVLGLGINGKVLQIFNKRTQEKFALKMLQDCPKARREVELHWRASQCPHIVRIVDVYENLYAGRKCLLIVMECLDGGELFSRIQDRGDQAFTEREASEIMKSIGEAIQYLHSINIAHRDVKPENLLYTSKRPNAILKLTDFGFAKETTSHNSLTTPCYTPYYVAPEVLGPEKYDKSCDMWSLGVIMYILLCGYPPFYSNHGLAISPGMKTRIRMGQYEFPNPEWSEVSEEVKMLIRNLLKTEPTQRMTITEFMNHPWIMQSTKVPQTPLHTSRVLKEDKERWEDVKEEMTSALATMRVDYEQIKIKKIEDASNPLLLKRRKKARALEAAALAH

[9] = biological target: LOK(h) (Homo sapiens, UniProt O94804)
Chain of LOK(h) (O94804 whole entry): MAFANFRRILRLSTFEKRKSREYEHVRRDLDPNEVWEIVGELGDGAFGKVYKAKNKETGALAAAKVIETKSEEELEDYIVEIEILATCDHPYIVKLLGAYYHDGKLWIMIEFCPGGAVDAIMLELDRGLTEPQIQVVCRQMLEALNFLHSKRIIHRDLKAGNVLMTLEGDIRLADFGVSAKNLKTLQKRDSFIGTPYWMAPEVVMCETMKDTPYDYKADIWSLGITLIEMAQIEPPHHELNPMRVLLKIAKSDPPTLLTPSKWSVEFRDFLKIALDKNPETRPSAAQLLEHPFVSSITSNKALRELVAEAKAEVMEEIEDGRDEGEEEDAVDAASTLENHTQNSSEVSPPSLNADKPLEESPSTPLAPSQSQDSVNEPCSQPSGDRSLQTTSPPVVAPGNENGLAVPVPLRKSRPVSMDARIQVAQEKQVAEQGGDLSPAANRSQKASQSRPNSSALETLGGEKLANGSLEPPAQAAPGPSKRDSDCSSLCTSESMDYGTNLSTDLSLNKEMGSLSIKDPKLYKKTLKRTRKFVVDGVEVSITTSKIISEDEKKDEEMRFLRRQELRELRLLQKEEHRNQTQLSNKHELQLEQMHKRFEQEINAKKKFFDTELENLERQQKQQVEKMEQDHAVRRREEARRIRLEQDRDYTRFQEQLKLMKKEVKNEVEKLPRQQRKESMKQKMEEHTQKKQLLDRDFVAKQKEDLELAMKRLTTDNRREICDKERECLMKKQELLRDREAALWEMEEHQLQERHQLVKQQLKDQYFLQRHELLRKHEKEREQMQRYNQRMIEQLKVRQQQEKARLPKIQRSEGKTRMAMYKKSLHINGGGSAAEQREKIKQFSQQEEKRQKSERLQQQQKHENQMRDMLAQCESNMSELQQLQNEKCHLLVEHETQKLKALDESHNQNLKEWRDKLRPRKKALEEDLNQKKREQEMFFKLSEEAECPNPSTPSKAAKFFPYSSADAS

[10] = biological target: Flt3(h) (Homo sapiens, UniProt P36888)
[11] = biological target: GSK3β(h) (Homo sapiens, UniProt P49841)
Chain of GSK3β(h) (P49841 whole entry): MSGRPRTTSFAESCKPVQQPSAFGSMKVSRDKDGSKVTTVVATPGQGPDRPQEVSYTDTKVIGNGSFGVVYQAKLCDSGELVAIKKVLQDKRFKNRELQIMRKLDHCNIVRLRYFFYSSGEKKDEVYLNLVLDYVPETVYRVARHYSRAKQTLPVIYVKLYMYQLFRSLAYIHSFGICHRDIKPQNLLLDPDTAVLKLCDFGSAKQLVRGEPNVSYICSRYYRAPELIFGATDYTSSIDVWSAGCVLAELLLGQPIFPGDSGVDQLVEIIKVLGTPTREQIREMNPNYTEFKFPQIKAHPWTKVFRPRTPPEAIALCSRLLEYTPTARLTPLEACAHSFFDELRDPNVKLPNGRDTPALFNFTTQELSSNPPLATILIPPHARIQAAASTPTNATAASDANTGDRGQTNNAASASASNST

[12] = biological target: T3, IKKα(h) (Homo sapiens, UniProt O15111)
T3 sequence (O15111 1-745): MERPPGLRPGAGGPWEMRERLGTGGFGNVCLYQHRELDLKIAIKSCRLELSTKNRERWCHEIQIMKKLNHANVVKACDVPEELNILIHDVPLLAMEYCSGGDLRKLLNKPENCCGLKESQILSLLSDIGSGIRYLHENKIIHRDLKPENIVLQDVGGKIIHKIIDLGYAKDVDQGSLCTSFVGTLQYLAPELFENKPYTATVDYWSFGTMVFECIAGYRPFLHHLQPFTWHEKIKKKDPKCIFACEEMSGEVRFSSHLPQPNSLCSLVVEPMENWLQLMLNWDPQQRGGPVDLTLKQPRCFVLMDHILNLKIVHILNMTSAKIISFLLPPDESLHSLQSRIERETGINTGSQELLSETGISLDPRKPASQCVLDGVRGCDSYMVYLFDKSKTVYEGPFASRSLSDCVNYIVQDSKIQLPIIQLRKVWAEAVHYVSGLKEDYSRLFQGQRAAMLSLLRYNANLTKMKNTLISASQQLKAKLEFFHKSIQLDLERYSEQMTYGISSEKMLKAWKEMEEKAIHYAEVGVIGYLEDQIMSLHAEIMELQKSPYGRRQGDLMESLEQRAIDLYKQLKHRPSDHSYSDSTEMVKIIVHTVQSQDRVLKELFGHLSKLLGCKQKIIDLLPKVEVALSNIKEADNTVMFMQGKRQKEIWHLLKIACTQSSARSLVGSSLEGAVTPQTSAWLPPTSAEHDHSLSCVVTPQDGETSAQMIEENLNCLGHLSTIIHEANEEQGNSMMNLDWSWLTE

[13] = biological target: NEK6(h) (Homo sapiens, UniProt Q9HC98)
Chain of NEK6(h) (Q9HC98 whole entry): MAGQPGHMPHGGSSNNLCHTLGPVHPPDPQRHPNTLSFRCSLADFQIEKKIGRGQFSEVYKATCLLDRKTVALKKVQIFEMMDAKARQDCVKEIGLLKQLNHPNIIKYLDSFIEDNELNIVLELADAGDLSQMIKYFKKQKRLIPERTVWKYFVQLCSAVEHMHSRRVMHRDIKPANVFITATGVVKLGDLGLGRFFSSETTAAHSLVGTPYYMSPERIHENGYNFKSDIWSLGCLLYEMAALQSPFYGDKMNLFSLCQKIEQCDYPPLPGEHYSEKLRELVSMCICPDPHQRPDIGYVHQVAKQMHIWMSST

[14] = biological target: CaMKIIδ(h) (Homo sapiens, UniProt Q13557)
Chain of CaMKIIδ(h) (Q13557 whole entry): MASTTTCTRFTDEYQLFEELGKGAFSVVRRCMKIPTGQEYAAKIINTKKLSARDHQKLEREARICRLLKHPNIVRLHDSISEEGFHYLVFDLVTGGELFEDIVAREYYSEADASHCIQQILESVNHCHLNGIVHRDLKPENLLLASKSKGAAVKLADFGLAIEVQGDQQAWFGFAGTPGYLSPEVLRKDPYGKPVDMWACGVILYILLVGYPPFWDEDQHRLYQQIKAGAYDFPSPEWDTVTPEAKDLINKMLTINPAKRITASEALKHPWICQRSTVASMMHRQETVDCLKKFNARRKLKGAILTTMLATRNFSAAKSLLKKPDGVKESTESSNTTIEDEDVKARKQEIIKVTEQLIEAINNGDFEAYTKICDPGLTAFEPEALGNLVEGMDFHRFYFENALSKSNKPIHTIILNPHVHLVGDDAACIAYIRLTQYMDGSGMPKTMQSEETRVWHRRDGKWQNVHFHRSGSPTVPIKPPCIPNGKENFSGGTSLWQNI

[15] = biological target: Abl(Y253F)(h) (Homo sapiens, UniProt P00519, Y253F)

Sequence | % activity [1] [%] | % activity [2] [%] | % activity [3] [%] | % activity [4] [%] | % activity [5] [%] | % activity [6] [%] | % activity [7] [%] | % activity [8] [%] | % activity [9] [%] | % activity [10] [%] | % activity [11] [%] | % activity [12] [%] | % activity [13] [%] | % activity [14] [%] | % activity [15] [%]
FAKLAARLYRKALARQLGVAA [MMI-0300] | 64 | 59 | 77 | 69 | 20 | 97 | 74 | 5 | 37 | 84 | 205 | 93 | 82 | 1 | 86
HRRIKAWLKKIKALARQLGVAA [MMI-0500] | 25 | 3 | 22 | 31 | 23 | 16 | 47 | 9 | 7 | 17 | 238 | 50 | 49 | 1 | 29
KAFAKLAARLYRKALARQLGVAA [MMI-0400] | 58 | 59 | 75 | 3 | 16 |  | 91 | 5 | 18 | 18 | 202 | 87 | 85 | 2 | 78
YARAAARQARAKALNRQLGVA [MMI-0200] | 70 | 110 | 100 | 98 | 74 | 108 |  | 35 | 67 | 99 | 132 |  | 98 | 2 | 
